# Laboratory results taken from publication PMC13043311, “2′-O-Methyl-guanosine RNA fragments antagonize TLR7 and TLR8 to limit autoimmunity”.
# Positions count from the first letter of the chain named.
# T1: TLR7 F507S (Macaca mulatta, UniProt B3Y653 27-839, F507S)
# T1 sequence: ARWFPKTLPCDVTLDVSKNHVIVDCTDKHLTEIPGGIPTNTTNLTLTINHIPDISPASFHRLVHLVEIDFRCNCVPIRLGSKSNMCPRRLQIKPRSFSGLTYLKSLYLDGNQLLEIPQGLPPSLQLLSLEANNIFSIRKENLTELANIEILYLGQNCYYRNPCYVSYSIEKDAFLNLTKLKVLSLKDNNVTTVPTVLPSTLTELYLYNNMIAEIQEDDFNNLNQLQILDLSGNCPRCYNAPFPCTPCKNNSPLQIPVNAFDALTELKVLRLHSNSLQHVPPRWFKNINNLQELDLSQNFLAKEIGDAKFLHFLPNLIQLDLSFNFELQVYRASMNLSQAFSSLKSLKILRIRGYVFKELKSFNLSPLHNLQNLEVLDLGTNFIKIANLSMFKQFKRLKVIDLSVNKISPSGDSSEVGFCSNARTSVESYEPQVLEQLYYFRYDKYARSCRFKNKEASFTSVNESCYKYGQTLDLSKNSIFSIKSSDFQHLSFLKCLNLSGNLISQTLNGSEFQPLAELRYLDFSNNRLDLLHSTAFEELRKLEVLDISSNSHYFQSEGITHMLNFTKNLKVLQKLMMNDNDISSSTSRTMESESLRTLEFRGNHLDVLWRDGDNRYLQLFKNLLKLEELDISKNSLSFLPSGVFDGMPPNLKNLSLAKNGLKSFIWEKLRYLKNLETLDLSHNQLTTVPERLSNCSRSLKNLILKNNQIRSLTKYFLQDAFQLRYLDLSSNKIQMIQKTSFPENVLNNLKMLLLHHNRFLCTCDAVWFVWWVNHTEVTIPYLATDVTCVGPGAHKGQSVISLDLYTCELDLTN
# T2: TLR7 P435S (Macaca mulatta, UniProt B3Y653 27-839, P435S)
# T2 sequence: T1 sequence with P409S, S481F
# T3: TLR7 F506L (Macaca mulatta, UniProt B3Y653 27-839, F506L)
# T3 sequence: T1 sequence with F480L, S481F
# B1: mGrUrC PS (XNA)
# RNA: GUC
# modifications: 2'-OMe G1, RNA U2 C3; phosphorothioate linkages
# Legend:
# Settings in all cases: protein: recombinant; chain copies: 2; single-stranded
# TLR7 F507S = target: T1, TLR7 F507S; test: SPR; mean computed from runs 36±1, 46±2, 42±6; SPR with recombinant TLR7/TLR8; buffer, pH and temperature not in the material
# TLR7 P435S = target: T2, TLR7 P435S; test: SPR; mean computed from runs 5±0.6, 6±0.7, 6±0.7; SPR with recombinant TLR7/TLR8; buffer, pH and temperature not in the material
# TLR7 F506L = target: T3, TLR7 F506L; test: SPR; mean computed from runs 4±0.5, 5±0.6, 5±2; SPR with recombinant TLR7/TLR8; buffer, pH and temperature not in the material
binder,measurement,setting,value
B1,Kd,TLR7 F507S,41.3 µM
same,Kd,TLR7 P435S,5.67 µM
same,Kd,TLR7 F506L,4.67 µM
